rRANKL-induced OC differentiation in OCP-RASF coculture, αvβ3 integrin cELISA luminescent readout (ng/mL rRANKL inhibited by 22 ng/mL rOPG) and rRANKL-induced OC differentiation in OCP-RASF coculture, αvβ3 integrin cELISA luminescent readout (ng/mL rRANKL inhibited by 66 ng/mL rOPG) data for one substance are collected here from patent US20090117107A1.

The experiment addresses rRANKL (Cambrex) (UniProt O14788). In words: cell-based or functional assay.
Sequence of UniProt O14788 (O14788 140-317 limits assumed): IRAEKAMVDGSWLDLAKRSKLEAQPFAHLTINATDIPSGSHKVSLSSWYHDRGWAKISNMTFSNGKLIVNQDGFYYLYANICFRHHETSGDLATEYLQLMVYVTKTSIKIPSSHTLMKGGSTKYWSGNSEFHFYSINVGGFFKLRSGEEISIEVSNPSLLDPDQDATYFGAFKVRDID

“Recombinant OPG (R&D cat185-05-025) (from UniProt O00300 22-401) (receptor)” came in with a rRANKL-induced OC differentiation in OCP-RASF coculture, αvβ3 integrin cELISA luminescent readout (ng/mL rRANKL inhibited by 22 ng/mL rOPG) of less than 7.5 and a rRANKL-induced OC differentiation in OCP-RASF coculture, αvβ3 integrin cELISA luminescent readout (ng/mL rRANKL inhibited by 66 ng/mL rOPG) of less than 15.
